Reference: article PMC7117912 (2020)
Ends that are not written are not given here.

Target: H2-D^b (mouse MHC I heavy chain ectodomain) refolded with human β2-microglobulin (mouse | human)
Test: FP

ASNC(TAMRA)NMETM [ASNC*NMETM (fluorescently labeled high-affinity peptide for H2-D^b)]
koff: 0.00035 s⁻¹
